Experimental data taken from the supplement of paper PMC12764529.
± gives the half width of the 95% confidence interval.

Experiments:
[1] = folding stability dG unfold (combined trypsin and chymotrypsin); higher = more stable
Summary of the method: (§1)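 Designed mini-proteins (under 80 residues, no cysteine) in a PA-tagged cDNA display construct were digested with trypsin and chymotrypsin. Each protease was used at 11 concentrations (threefold dilutions) plus a no-protease condition, followed by sequencing. K50 was inferred by Bayesian fitting of sequencing counts, and unfolding free energy was derived against a sequence-predicted unfolded-state K50 and a shared folded-state K50, per protease or combined. Only designs with AlphaFold2 dimer inter-PAE above 15 were kept.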

[2] = folding stability dG unfold from chymotrypsin proteolysis; higher = more stable
Summary of the method: as §1

[3] = folding stability dG unfold from trypsin proteolysis; higher = more stable
Summary of the method: as §1

Sequence	folding stability dG unfold [1]	folding stability dG unfold [2]	folding stability dG unfold [3]
SAGGMGLEELAKLSPEEIARRLAAEAKAAAAAAGTPDAAVTLEVTLEDKPIVVEVGADGTIRRVELGSAGGS [r16_431_JUSTAS]	0.922 ± 0.063 kcal/mol	1.16 ± 0.024 kcal/mol	0.442 ± 0.1 kcal/mol
SAGGMGSEKLPLTLTLPGDRKLEVTVYRVGDKLYVEIKLTHGSKPLGTLTVEADSLDEVLDAAKEAASAGGS [r16_55_TrMRF]	3.28 ± 0.15 kcal/mol	3.58 ± 0.062 kcal/mol	2.77 ± 0.15 kcal/mol
SAGGMIAEIKPIPPNVPDGATATITFPDGTPAEAELRTEPLEDGPRRVVLKLKGKEGEIELEFVLPLSAGGS [r8_360_TrMRF]	0.0112 ± 0.099 kcal/mol	-0.488 ± 0.31 kcal/mol	0.16 ± 0.13 kcal/mol
SAGGMIEIEYNPDQGYFRITVWPMNPKNGKPKSKEIPIPFEGDPEEALDKVKDLIDDHPGYHVDIEPYSAGG [r13_284_TrROS]	1.05 ± 0.14 kcal/mol	1.27 ± 0.13 kcal/mol	0.657 ± 0.068 kcal/mol
SAGGMIELTIVVKTKEEAEKAAEELARKLAEELGVEVTVTSVEVEEVEDPETGETYLVVRVRIEVKPSAGGS [r8_171_TrROS_Hall]	4.53 ± 0.23 kcal/mol	4.12 ± 0.11 kcal/mol	4.75 ± 0.27 kcal/mol
SAGGMIKITVTLPDPARVRALFAELGLDVEVTPLPDGSVEIYLPEEYKEKVVEALPEEEVEITPVPPLSAGG [r13_261_JUSTAS]	2.91 ± 0.14 kcal/mol	3.05 ± 0.17 kcal/mol	2.5 ± 0.13 kcal/mol
SAGGMIKLEFENPDGMRIKIEIDRIHRFDPDNGYLIIPVKIEVEPPGKPREIDGTIILPPGMPPGQPLSAGG [r13_823_TrROS]	1.43 ± 0.24 kcal/mol	0.811 ± 0.082 kcal/mol	2.04 ± 0.19 kcal/mol
SAGGMIRIERDGDRLTIEIHLPEGEELTPEQLEELARALLEELGPDARVVRVERLEDGTVRIEVELPSAGGS [r8_103_TrROS_Hall]	2.88 ± 0.13 kcal/mol	2.35 ± 0.07 kcal/mol	3.32 ± 0.14 kcal/mol
SAGGMITATFTIDLGAGPVTFTFDITDIETALEKIKEYLKSQGIDAKLVSVSVDPANGTVPMKLSVPPSAGG [r13_567_JUSTAS]	1.56 ± 0.12 kcal/mol	1.46 ± 0.14 kcal/mol	1.58 ± 0.043 kcal/mol
SAGGMIVIEKEEDGFYRITIRNKETGEEVEEIPISKEELEELLKEAEENMSLEEIAEKLGLEIEIEKVSAGG [r13_836_TrROS_Hall]	1.27 ± 0.12 kcal/mol	0.971 ± 0.023 kcal/mol	1.68 ± 0.047 kcal/mol
SAGGMIVIEVETEEEALEAARELAKKLLEKLKEEGIEEVTLTVTVEVVDEKTKEVKTYTLTLTVKKPSAGGS [r8_163_TrROS_Hall]	4.08 ± 0.21 kcal/mol	4.19 ± 0.051 kcal/mol	3.94 ± 0.23 kcal/mol
SAGGMKFELVARFDSKEAAEKAVEELVRELFPDFDVEVEVEVIEDPETGTFLAIATITLPLPGPEDLSAGGS [r8_17_TrMRF]	4.19 ± 0.2 kcal/mol	4.18 ± 0.19 kcal/mol	4.31 ± 0.21 kcal/mol
SAGGMKIEFDEKTKRITITLPDGKKVEIELKDGRKVEITFERVDGKLKVVIKHKNEEEALELAKKLLSAGGS [r16_623_TrROS_Hall]	1.55 ± 0.26 kcal/mol	1.34 ± 0.082 kcal/mol	1.15 ± 0.086 kcal/mol
SAGGMKIEITVSPVGDVVNVEVKIELPEGPVEVVDETPAEVAPDGSIHIKLKLKLPNGPWLEMEIEVSAGGS [r8_449_JUSTAS]	3.87 ± 0.33 kcal/mol	3.97 ± 0.15 kcal/mol	2.91 ± 0.24 kcal/mol
SAGGMKIEIVEIEREGNTITIKAKITLPDGTVIEITAKAEFVDGELKLEIKVEVRKLPPPPPPPPEESAGGS [r8_458_TrROS_Hall]	2.55 ± 0.53 kcal/mol	2.73 ± 0.39 kcal/mol	2.87 ± 0.27 kcal/mol
SAGGMKIEVRPLPGDGFVVRLPGDVVALIDPSTGEAVAFFPDGSVARLTITRDPDRPEFTITIEPVGSAGGS [r8_186_TrMRF]	1.83 ± 0.069 kcal/mol	1.89 ± 0.032 kcal/mol	1.77 ± 0.059 kcal/mol

Sequence	folding stability dG unfold [1]	folding stability dG unfold [2]	folding stability dG unfold [3]
SAGGMKIGVLLPKSIPPEKAEEFLKKLNPDLEVEYRPVEPGSLKDIPPEIEVIVLPADDDFALALVKPSAGG [r13_649_TrMRF]	0.00463 ± 0.11 kcal/mol	-0.401 ± 0.12 kcal/mol	0.323 ± 0.044 kcal/mol
SAGGMKIKVTVEVTFPDGTVRTFPVPDATSEEEVRAILAERGFGDLADVPIRITEREPVPAVPPEELLSAGG [r13_493_JUSTAS]	1.69 ± 0.071 kcal/mol	1.76 ± 0.043 kcal/mol	1.68 ± 0.033 kcal/mol
SAGGMKINPKVFGNYVLVEVENPETGSRILKLVEFNPGPKTATVKVFYIDPNGKPTLLEEKTFSLPDLSAGG [r13_768_TrMRF]	2.32 ± 0.071 kcal/mol	2.736 ± 0.025 kcal/mol	1.36 ± 0.018 kcal/mol
SAGGMKIVSIEYDKENKKITIKVEAPPGVSAEELAKKIKELAKELFGKEIEIEVKVEKVEFFEPEEESAGGS [r8_314_TrROS_Hall]	3.33 ± 0.12 kcal/mol	3.12 ± 0.13 kcal/mol	3.61 ± 0.16 kcal/mol
SAGGMKIVSVEFDEETGEVYVKIEVPTPEELEALKKLPGEVRIVDKETGEVKVIKVKSIEELLELLKKSAGG [r13_604_TrROS_Hall]	2.05 ± 0.15 kcal/mol	2.18 ± 0.071 kcal/mol	1.86 ± 0.086 kcal/mol
SAGGMKIYYISKGKKYYVKVILPNNEIIEIETESLEEAIKKAKEELIKKYPNIPPENFKIDYIIPLPESAGG [r13_887_TrMRF]	4.18 ± 0.2 kcal/mol	4.34 ± 0.078 kcal/mol	3.81 ± 0.2 kcal/mol
SAGGMKKEKVKITIVVPVEDAEKLREALEKLGFKVVEEKENEDGLLTLTVEVDGKKIEIKIVKKEELSAGGS [r16_170_TrROS_Hall]	1.05 ± 0.28 kcal/mol	0.81 ± 0.095 kcal/mol	1.13 ± 0.088 kcal/mol
SAGGMKKGQKVTITIEKNEDGTLRITVKVDGKEFVFEFPKDMSLEELLKKAEEAAKKLNLPVEIEPVSAGGS [r16_446_TrROS_Hall]	2.3 ± 0.25 kcal/mol	2.65 ± 0.15 kcal/mol	1.29 ± 0.069 kcal/mol
SAGGMKKYKIKVENLPPGARIITPDGREIKPGEEVEIELPEDVKEIYVILPDGKIVKVKVEEVEPEEESAGG [r13_441_TrROS_Hall]	3.71 ± 0.76 kcal/mol	4.31 ± 0.15 kcal/mol	4.12 ± 0.3 kcal/mol
SAGGMKKYKVTVTIELTPPDGTTTTVTVTIDVDGDEKKALEEAEKVAEELKAAGYPVTIKEIKIYEESAGGS [r16_525_JUSTAS]	4.69 ± 0.78 kcal/mol	4.51 ± 0.3 kcal/mol	3.8 ± 0.37 kcal/mol
SAGGMKLKPVKEGEEIEIELEIVDKETKKVYKVKAKITVVKDKETKEYYVKIEIENPETGEKYTFLLKSAGG [r13_262_TrROS_Hall]	2.21 ± 0.36 kcal/mol	2.34 ± 0.12 kcal/mol	2.17 ± 0.13 kcal/mol
SAGGMKLTPEELKGKTIRIRIKVNGKEYEIEAKVVEVDGELYIEVKIINKETKEEKTITIPLDDVEIVSAGG [r13_289_TrROS_Hall]	2.39 ± 0.25 kcal/mol	2.1 ± 0.064 kcal/mol	2.67 ± 0.072 kcal/mol
SAGGMKLTVEIEYDEETEEVTIRIRNEETGEEIEITLSKEEVEKLLEALEKNPEKSIEEALLEALKESAGGS [r8_484_TrROS_Hall]	2.43 ± 0.25 kcal/mol	2.33 ± 0.11 kcal/mol	2.58 ± 0.23 kcal/mol
SAGGMKPGAPVEIEFPIPGIPPGRRFRIMIHYPNGKHVEAEYTDNTIKIEIPVPDGDNIHHIYIYFYSAGGS [r16_179_TrROS]	3.86 ± 0.12 kcal/mol	4.33 ± 0.11 kcal/mol	3.27 ± 0.084 kcal/mol
SAGGMKPGEKTIRLLLKLPPGEELTPEQVEELAKRLAEELREKGYEVEVEVVERDGELYVLVEVRFPESAGG [r13_442_TrROS_Hall]	4.1 ± 0.044 kcal/mol	4.275 ± 0.034 kcal/mol	3.55 ± 0.1 kcal/mol
